According to publication PMC12013189, “Phospho-regulated tethering of focal adhesion kinase to vinculin links force transduction to focal adhesion signaling” (Cell Communication and Signaling : CCS, 2025):
Positions count from the first letter of the chain named. Names may count otherwise. Ends that are not written are not given here.

T1: FAT domain of FAK (hFAK904-1052 WT) (Homo sapiens, UniProt Q05397)
T1 construct: Expression plasmids for FAT (hFAK904-1052 WT and mutants H14, H23 and H14-23); 6xHis (TEV cleavable) (N, cleaved yes); made in house; host or cells: E. coli BL21(DE3)
T1 sequence (Q05397 904-1052): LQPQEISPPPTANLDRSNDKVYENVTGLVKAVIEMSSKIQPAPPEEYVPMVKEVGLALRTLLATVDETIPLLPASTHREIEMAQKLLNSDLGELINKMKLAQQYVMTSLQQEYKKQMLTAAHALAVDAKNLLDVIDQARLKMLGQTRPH

T2: FAT-H14 (hFAK904-1052 with I936A, H1025A, K1032A) (human, UniProt Q05397 904-1052, I936A | H1025A | K1032A)
T2 sequence: T1 sequence (Q05397 904-1052) with I33A, H122A, K129A

T3: FAT-H23 (hFAK904-1052 with K955A, R962A, I998A) (human, UniProt Q05397 904-1052, K955A | R962A | I998A)
T3 sequence: T1 sequence (Q05397 904-1052) with K52A, R59A, I95A

T4: FAT-Y925E phospho-mimetic mutant (human, UniProt Q05397 904-1052, Y925E)
T4 sequence: T1 sequence (Q05397 904-1052) with Y22E

T5: FAT-Y925F phosphodeficient mutant (human, UniProt Q05397 904-1052, Y925F)
T5 sequence: T1 sequence (Q05397 904-1052) with Y22F

T6: FAT domain of Focal Adhesion Kinase, wild type (hFAK904-1052) (human, UniProt Q05397 904-1052)
T6 chain: T1 sequence (Q05397 904-1052)

T7: paxillin LD2/4 peptide (LD2 and LD4 motifs separated by a designed linker) (FITC label (fluorescence anisotropy))
T7 chain: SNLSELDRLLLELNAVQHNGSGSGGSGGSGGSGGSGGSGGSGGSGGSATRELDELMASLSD

B1: paxillin LD2/4 peptide (LD2 and LD4 motifs separated by a designed linker) (peptide)
chain: T7 chain
modifications: also: FITC label, position not given here
B2: FAT domain of Focal Adhesion Kinase, wild type (hFAK904-1052) (domain or fragment, human, UniProt Q05397 904-1052, looked up)
chain: T1 sequence (Q05397 904-1052)
notes: focal adhesion kinase (FAK), human, FAT domain, residues 904-1052 (hFAK904-1052); also called FAT-WT; source: E. coli BL21(DE3), purified (His-Trap, TEV digest, Source 15Q, Ni-NTA flow-through, Superdex200); not shown: His6, N-terminal, cleaved
B3: FAT-H14 (hFAK904-1052 with I936A, H1025A, K1032A) (domain or fragment)
chain: T1 sequence (Q05397 904-1052) with I33A, H122A, K129A

Assays:
[1] = target: T8, vinculin tail domain (Vin-T, hVinculin891-1066) (Homo sapiens, UniProt P18206); experiment: Fluorescence anisotropy binding to vinculin tail domain; conditions: 25 nM FITC labelled peptide, pH7.5, 22 °C, one-site binding model, 4 measurements, read-out: Apparent KD for vinculin tail domain (Vin-T)
T8 construct: Vin-FL (hVinculin1-1066) and Vin-T (hVinculin891-1066) were ordered from GenScript; 6xHis (TEV cleavable) (N, cleaved yes); made in house; host or cells: E. coli BL21(DE3)
T8 sequence (P18206 891-1066 isoform P18206-2): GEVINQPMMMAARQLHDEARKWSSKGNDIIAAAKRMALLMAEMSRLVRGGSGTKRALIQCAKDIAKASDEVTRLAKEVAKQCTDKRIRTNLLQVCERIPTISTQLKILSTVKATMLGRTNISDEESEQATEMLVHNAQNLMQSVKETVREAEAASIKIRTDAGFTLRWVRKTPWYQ
Source text: (§1) Expression plasmids for FAT (hFAK904-1052 WT and mutants H14, H23 and H14-23), Vin-FL (hVinculin1-1066) and Vin-T (hVinculin891-1066) were ordered from GenScript in the pET28(+) vector, adding a TEV cleavable N-terminal 6xHis tag to the expressed proteins. Mutant FAT-H14 contains the mutations I936A, H1025A, K1032A; FAT-H23 contains the mutations K955A, R962A, I998A and FAT-14-23 contains the combined mutations I936A, K955A, R962A, I998A, H1025A, K1032A. All plasmids were introduced into E.coli strain BL21(DE3) for expression. Cells were grown in LB media, induced with 1 mM IPTG at an OD (600 nm) of 0.6 and grown over night at 20 °C. […]
(§2) Binding curves were determined in a total of 20 µl in black 384 well plates, by titrating protein concentrations (typically up to 50 µM) at a fixed concentration of 25 nM FITC labelled LD peptides (Apeptide Co. Ltd) in 20 mM Tris pH7.5, 150 mM NaCl, 1mM TCEP. Anisotropy measurements were preformed at 22 °C on a Spark® Multimode microplate reader (Tecan) with polarizers, at an excitation wavelength of 485 nm and an emission wavelength of 535 nm (20 nm bandwidth). KD values were extracted by fitting a one-site binding model using the GraphPad Prism software, using the equation: Y = Bmax*X/(KD + X), where Y is the measured anisotropy, X the protein concentration and Bmax the maximal anisotropy value at binding saturation.

[2] = target: T9, full-length vinculin (Vin-FL, hVinculin1-1066) (Homo sapiens, UniProt P18206); experiment: Fluorescence anisotropy binding to full-length vinculin; conditions: 25 nM FITC labelled peptide, pH7.5, 22 °C, one-site binding model, 4 measurements, read-out: Apparent KD for full-length vinculin (Vin-FL)
T9 construct: Vin-FL (hVinculin1-1066) and Vin-T (hVinculin891-1066) were ordered from GenScript; 6xHis (TEV cleavable) (N, cleaved yes); made in house; host or cells: E. coli BL21(DE3)
T9 sequence (P18206 1-1066 isoform P18206-2): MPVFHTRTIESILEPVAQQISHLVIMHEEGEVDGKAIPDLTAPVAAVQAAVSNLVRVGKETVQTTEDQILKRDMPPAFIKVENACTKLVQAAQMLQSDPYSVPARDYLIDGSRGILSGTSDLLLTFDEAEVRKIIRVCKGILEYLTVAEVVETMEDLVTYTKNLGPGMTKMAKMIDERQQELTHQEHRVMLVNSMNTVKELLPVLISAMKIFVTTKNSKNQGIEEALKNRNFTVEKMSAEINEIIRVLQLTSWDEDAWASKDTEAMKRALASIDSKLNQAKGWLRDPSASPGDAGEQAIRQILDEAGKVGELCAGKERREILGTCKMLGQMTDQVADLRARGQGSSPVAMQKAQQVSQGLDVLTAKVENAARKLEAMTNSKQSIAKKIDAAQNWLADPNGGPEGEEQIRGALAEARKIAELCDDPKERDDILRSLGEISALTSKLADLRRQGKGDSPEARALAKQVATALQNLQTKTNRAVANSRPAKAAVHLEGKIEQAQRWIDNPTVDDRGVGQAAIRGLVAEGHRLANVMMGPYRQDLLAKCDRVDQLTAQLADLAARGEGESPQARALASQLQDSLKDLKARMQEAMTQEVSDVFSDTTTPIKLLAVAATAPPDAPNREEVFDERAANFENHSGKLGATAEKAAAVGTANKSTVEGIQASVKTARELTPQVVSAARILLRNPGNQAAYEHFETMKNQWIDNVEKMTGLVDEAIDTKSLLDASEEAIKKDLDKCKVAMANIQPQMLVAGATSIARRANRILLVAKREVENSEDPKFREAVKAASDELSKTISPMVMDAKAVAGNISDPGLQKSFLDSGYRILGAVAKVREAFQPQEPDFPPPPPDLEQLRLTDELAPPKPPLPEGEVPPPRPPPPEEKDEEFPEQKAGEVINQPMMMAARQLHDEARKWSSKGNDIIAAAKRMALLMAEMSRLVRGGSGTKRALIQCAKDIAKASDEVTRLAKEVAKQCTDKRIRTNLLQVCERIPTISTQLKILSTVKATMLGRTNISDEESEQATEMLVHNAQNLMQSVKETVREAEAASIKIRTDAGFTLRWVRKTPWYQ
Source text: as §1, §2

[3] = target: T1, FAT domain of FAK (hFAK904-1052 WT); experiment: Fluorescence anisotropy binding of FITC LD peptides to FAT-WT
Source text: Expression plasmids for FAT (hFAK904-1052 WT and mutants H14, H23 and H14-23), Vin-FL (hVinculin1-1066) and Vin-T (hVinculin891-1066) were ordered from GenScript in the pET28(+) vector, adding a TEV cleavable N-terminal 6xHis tag to the expressed proteins. Mutant FAT-H14 contains the mutations I936A, H1025A, K1032A; FAT-H23 contains the mutations K955A, R962A, I998A and FAT-14-23 contains the combined mutations I936A, K955A, R962A, I998A, H1025A, K1032A. All plasmids were introduced into E.coli strain BL21(DE3) for expression. Cells were grown in LB media, induced with 1 mM IPTG at an OD (600 nm) of 0.6 and grown over night at 20 °C. Cells were pelleted at 6000 rpm and resuspended in 20 mM Tris pH8, 200 mM NaCl, 5% Glycerol, 10 mM imidazole, 2mM TCEP, 1mM PMSF supplemented with cOmplete protein inhibitor cocktail (Roche). Cells were lysed by sonication and insoluble components removed by centrifugation at 40 K for 1 h at 4 °C. Soluble lysates were cleared through 0.45 μm filters and loaded onto His-Trap affinity columns (Cytiva), washed with step gradients up to 30 mM imidazole and eluted with a gradient up to 500 mM imidazole. Peak-fractions were digested over night with TEV protease (molar ratio ~ 1: 20) at 4 °C. Proteins were diluted to 50 mM NaCl and loaded onto a Source 15Q column, washed with 20 mM Tris pH8, 50 mM NaCl, 5% Glycerol, 1mM TCEP and eluted with a gradient up to 1 M NaCl. Peak fractions were mixed with 1 ml of Ni-NTA beads to remove TEV and uncleaved protein, adding 10 mM imidazole to prevent non-specific binding. The flow-through was concentrated, loaded onto a Superdex200 16/60 column and eluted in 20 mM Tris pH8, 200 mM NaCl, 5% Glycerol, 2mM TCEP. Peak fractions were concentrated, aliquots flash frozen in LN2 and stored at -80 °C.
as §2

paxillin LD2 peptide = experiment: fluorescence polarisation; fluorescence anisotropy; protein titrated (typically up to 50 µM) at 25 nM FITC labelled LD peptide; 20 mM Tris pH7.5, 150 mM NaCl, 1mM TCEP; 22 °C; one-site binding model; apparent KD
paxillin LD1 peptide = experiment: as above
[4] = target: vinculin tail domain (hVinculin891-1066) (human) (UniProt P18206); experiment: AUC; sedimentation velocity; Vin-T at 100 µM; 20 °C, 48,000 rpm; monomer to dimer
[5] = target: T2, FAT-H14 (hFAK904-1052 with I936A, …); experiment: FP
[6] = target: T3, FAT-H23 (hFAK904-1052 with K955A, …); experiment: FP
[7] = target: B2; experiment: fluorescence polarisation; fluorescence anisotropy; protein titrated (typically up to 50 µM) at 25 nM FITC labelled LD peptide; 20 mM Tris pH7.5, 150 mM NaCl, 1mM TCEP; 22 °C; one-site binding model; apparent KD; conditions: both partners purified
[8] = target: T4, FAT-Y925E phospho-mimetic mutant; experiment: FP
[9] = target: T5, FAT-Y925F phosphodeficient mutant; experiment: FP
[10] = target: T6, FAT domain of Focal Adhesion Kinase, …; experiment: FP
[11] = target: T7, paxillin LD2/4 peptide (LD2 and LD4 …); experiment: AUC; sedimentation velocity; FAT and Vin-T at 30 µM with 10 µM LD2/4 peptide; 20 mM Tris pH 7.5, 200 mM NaCl, 5% Glycerol, 1 mM TCEP; 20 °C, 58,000 rpm; absorbance at 280 nm; conditions: both partners purified

CC(C)C[C@H](NC(=O)[C@H](CCC(=O)O)NC(=O)[C@H](CC(C)C)NC(=O)[C@H](CC(C)C)NC(=O)[C@H](CC(C)C)NC(=O)[C@H](CCCNC(=N)N)NC(=O)[C@H](CC(=O)O)NC(=O)[C@H](CC(C)C)NC(=O)[C@H](CCC(=O)O)NC(=O)[C@H](CO)NC(=O)[C@H](CC(C)C)NC(=O)[C@H](CC(N)=O)NC(=O)[C@@H](N)CO)C(=O)N[C@@H](CC(N)=O)C(=O)N[C@@H](C)C(=O)N[C@H](C(=O)N[C@@H](CCC(N)=O)C(=O)N[C@@H](Cc1c[nH]cn1)C(=O)N[C@@H](CC(N)=O)C(=O)O)C(C)C [LD2]
Kd [1]: 1700 ± 300 nM | Kd [2]: 1300 ± 300 nM

MDDLDALLADLES [LD1]
Kd [1]: 3100 ± 300 nM

SATRELDELMASLSD [LD4]
Kd ([3]; 25 nM FITC labelled peptide, 20 mM Tris pH7.5, 150 mM NaCl, 1mM TCEP, 22 °C, one-site binding model, 4 measurements, read-out: Apparent KD for FAT-WT): 2100 ± 400 nM

SQLDSMLGSLQSD [LD5, synthetic peptide corresponding to the paxillin LD5 motif, FITC labelled N-terminally for anisotropy]
binding to FAT-WT, in words [3]: no significant affinity

SVESLLDELES [LD3, synthetic peptide corresponding to the paxillin LD3 motif, FITC labelled N-terminally for anisotropy]
binding to FAT-WT, in words [3]: no significant affinity

full-length vinculin (hVinculin1-1066) (from UniProt P18206-2 1-1066) (natural protein)
Kd (paxillin LD2 peptide): 1300 nM

vinculin tail domain (hVinculin891-1066) (from UniProt P18206-2 891-1066) (domain or fragment)
Kd (paxillin LD1 peptide): 3100 nM | Kd (paxillin LD2 peptide): 1700 nM | percent of Vin-T in the ~ 2.5 S form at 100 µM [4]: 20% | stoichiometry N [4]: 2

B1
Kd [5]: 5800 nM | Kd [6]: 1800 nM | Kd [7]: 130 ± 10 nM | Kd [8]: 1500 nM | Kd [9]: 1400 nM

MDDLDALLADLES (also: FITC label, position not given here) [paxillin LD1 peptide]
Kd [5]: 31400 nM | Kd [8]: 24700 nM | Kd [9]: 19300 nM | Kd [10]: 18300 nM

SNLSELDRLLLELNAVQHN (also: FITC label, position not given here) [paxillin LD2 peptide]
Kd [5]: 13300 nM | Kd [6]: 3900 nM | Kd [8]: 6000 nM | Kd [9]: 6000 nM | Kd [10]: 1800 nM

B2
fold lower affinity than for LD2 and LD4 (paxillin LD1 peptide): 10 fold | Kd (paxillin LD2 peptide): 2000 nM | stoichiometry N [11]: 1 FAT per LD2/4 (2:2)

B3
fold reduction of affinity against FAT-WT (paxillin LD2 peptide): 7 fold

ATRELDELMASLS (also: FITC label, position not given here) [paxillin LD4 peptide]
Kd [5]: 3600 nM | Kd [7]: ~2000 nM
